From the nanobody polyreactivity screen of Harvey et al. (2022)

Assay: yeast display, Sf9 membrane polyspecificity reagent, FACS + sequencing; frameworks hold sequencing errors
Method in brief: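 Using colony PCR, genes from sorted yeast display clones were amplified, then sequenced on MiSeq at 2 × 250 and filtered by CDR length. The clones had been stained with 10% biotinylated, detergent-solubilized Sf9 membrane reagent for 1 hour at 4 °C and sorted by FACS into low and high (top ~1%) gates on anti-HA and streptavidin fluorescence. Polyreactivity labels come from the gate of origin.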

## QVQLVESGGGLVQAGGSLRLSWAASGSTFRLYAMGWYRQAPGKERELVAAITWSGGSTYYADSVKGRFTISRDNAKNTVYLQMNSLKPEDTAVYYCAAHRIGYYLRVSYRGKYDHWGQGTQVTVSS
  polyreactivity (PSR sort gate): low polyreactivity

## QVQLVESGGGLVQPGGSLRLSCAASGNTFANYAMGWYRQAPGKERELVAAITSNGGSTYYADSVKGRFTISRDNAKNTVFLQMNSLKPEDTAVYYCAADAAYYSGYDYWGQGTQVTVSS
  polyreactivity (PSR sort gate): low polyreactivity

## QVQLVESGGGLVQAGGSLRLSCAASGSTFSYYAMGWYRQAPGKERDLVAAISTDGGSTYYADSVKGRFTISRDNAKNTVYLQMNSLKPEDTAVYYCAALVGYYQYVWDLTYTVVEYNYWGQGTQVNVSS
  polyreactivity (PSR sort gate): low polyreactivity

## QVQLVESGGGLVQAGGSLRLSCAASGRTFDRNTMGWYRQAPGKQRELVAAISSSGGSTYYADSVKGRFTISRDNAKNTVYLQMNSLKPEDTAVYYCAARQSPNRWMGYWGQGTQVTVSS
  polyreactivity (PSR sort gate): high polyreactivity

## QDQLVESGGGLVQAGGSLRLSCAASGFTFWEYAMGWYRHAPGKERELVAAISRGTSTYYADSVKGRFTISRDNAKNTVYLQMNSLKPEDTAVYYCASAPSYYPARHGYWGQGTQVTVSS
  polyreactivity (PSR sort gate): low polyreactivity

## QVQLVESGGGLVQAGGSLRLSCAASGIIIQINAMGWYRQAPGKERELVAAITIDGTTNYADSVKGRFTISRDNAKNTVYLQMNSLKPEDTAVYYCARRRSVYVWEPYQYDYWGQGTQVTVSS
  polyreactivity (PSR sort gate): low polyreactivity

## QVQLVESGGGLVQAGGSLRLSCAASGITLYWYAMGWYRQAPGKERELVAAISRRGGTTYYADSVKGRFTISRDNAKNTVYLQMNSLKPEDTAVYYCAKAPDTQTSWSRQEGNYWGQGTQVTVSS
  polyreactivity (PSR sort gate): low polyreactivity

## QVQLVESGGGLVQAGGSLRLSCAASGSSFRFYAMGWYRQAPGKERELVATIRYSTGTTYYADSVKGRFTISRDNAKNTVYLQMNSLKPEDTAVYYCAAGYFIYSWRIRFDYWGQGTQVTVSS
  polyreactivity (PSR sort gate): high polyreactivity

## QVQLVESGGGLVQAGGSLRLSCAASGSTIAFYDMGWYRQAPGKEREMVAAISQSDGDTYYADSVKGRFTISRDNAKNTVYLQMNSLKPEDTAVYYCARPSFTSGYQSYDYWGQGTQVTVSS
  polyreactivity (PSR sort gate): low polyreactivity

## QVQLVESGGGLVQAGGSLSLSCDASGFTFRYYFMGWYRQAPGKERELVAAISYTGRTTYYADSVKGRFTISRDNAKNTVYLQMNSLKPEDTAVYYCASGAIGYNGKAYGMDYWGQGTEVTVSS
  polyreactivity (PSR sort gate): high polyreactivity

## QVQLVESGGGLVQAGGSLRLSCAASGSIFHYNAMGWYRQAPGKERELVAAISTSGGSTYYADSVKGRFTISRDNAKNTVYLQMNSLKPEDTAVYYCNAYHRYRRLEMYYWGQGTQVTVSS
  polyreactivity (PSR sort gate): high polyreactivity

## QVQLVESGGGLVQAGGSLRLSCAASGSIFPVNAMGWYRQAPGKERELVAAISSDGTTYYADSVKGRFTISRDNAKNTVYLQMNSLKPEDTAVYYCAKDRRYYKAYDYWGQGTLVTVSS
  polyreactivity (PSR sort gate): low polyreactivity

## QVQLVESGGGLVQAGGSLRLSCAASGSILRSNAMGWYRQAPGKERELVAVISNDDSTYYADSVKGRFTISRDNATNTVYLQMNSLKPEDTAVYYCNAVYYYFFRWHPIYDSWGQGTQVTVSS
  polyreactivity (PSR sort gate): low polyreactivity

## QVQLVESGGGLVQAGGSLRLSCAASGRIFRRYASGWYRQAPGKEMELDADITYGVDSTYYADSVKGRFTISRDNAKNTVYLQMNSLKPEDTAVYYCIADRTEDMLYRFVGVTYGYWGQGTQVTVSS
  polyreactivity (PSR sort gate): high polyreactivity

## QLQLVESGGGLVQAGGSLRLSCAGSGSIFVGYAMGWYRQAPGKARELVAAISTRGGSTYYADSVKGRFTISRDNAKNTVYLQMNSLKPEDTAVYYCAADYLDSTYGYVYGWDDYWGQGTQVTVSS
  polyreactivity (PSR sort gate): low polyreactivity

## QVQLVESGGGVVQAGGSLRLSCAASGSIFLRYAMGWYREAPGKERELVAAITSSGGSTYYADSVKGRFTISRDNAKNTVYLQMNSLKPQDNAVYYCNARAYTRYSRLDYWGQGTQVSVSS
  polyreactivity (PSR sort gate): high polyreactivity

## QVQLVESGGGLDQAGGSLRLRCAASGSTFYVNAIGWYRQAPGKERELVAAITSTGTTHNADSVKGRFTISRDNAKKTVYLQMNSLKPEDTAVYYCAAGDQYKTRRNGYGYWGQGTQVTVSS
  polyreactivity (PSR sort gate): high polyreactivity

## QVQLVESGGGLVQAGGSLRLSCAASGYIFAYTAMGWYRQAPGKEREFVAVITRSDDSTYADSVKGRFTISRDNAKNTVYLQMNSLKPEDTAVYYCAAQPFVIDGGYRGDYWGQGTQVTVSS
  polyreactivity (PSR sort gate): low polyreactivity

## QVQLVESGGGLVQAGGSLRLSCAASGFIFRWYAMGWYRQAPWKERELVASINTDGDSTYYADSVKGRFTISRDNAKNTVYLQMNSLKPEDTAVYYCAADYVGYWWYTSDNYDYWGQGTQVTVSS
  polyreactivity (PSR sort gate): high polyreactivity

## QVQLLESGCGLVQAGGSLRLSCMASGSSLGDRMSWYRQAPGKEHELVATIYDGGITYYADSMKGRFTISRENAKNSVYLQMNSLRPEDTAVYYCGDSFEGYRYHVYCGQGTQVTVSS
  polyreactivity (PSR sort gate): low polyreactivity

## QVQLVESGGGLVQAGGSLRLSCAASGRISLSNAMGWYRQAPGKEREFVAAITKRSDRTYYADSVKGRFTISRDNAKNTVSLQMNSLKPEDTAVYYCAAKPLFGTRDDYWGQGTQVTVSS
  polyreactivity (PSR sort gate): low polyreactivity

## QVQLVESGGCLVQAGGSLRLSCAASGRTYQNNAMGWYRQAPGKERELVAAISRSGASTYYADSVKGRFTISRDNAKNTVYLQMNSLKPEDTAVYYCAARYPRTAYDYWGQGTQVTVSS
  polyreactivity (PSR sort gate): low polyreactivity

## QVQLVESGGGLVQAGGSLRLSCAASGSIIKRNAKGWYRQAPGKERELVASISSGGSTKYADSVKGRFTISRDNAKNTVYLQMNSLKPEDTAVYYCAKRSSQTRRAYDYWGQGTQVTVSS
  polyreactivity (PSR sort gate): low polyreactivity

## QVQLVESGGGLVQAGGSLRLSCAASGLTFGWYAMGWYRQAPRKERELVAAISWSGSTTYYADSVKGRFTISRDNAKNTVYLQMNSLKPEDTAVYYCAADVSTRPYGYYYWGQGTQVTVSS
  polyreactivity (PSR sort gate): high polyreactivity

## QVQLVESGGGLVQAGGSLRLSCAASGSTFDYYAMGRYRQAPGKERELVAAITTGGRTYYADSVKGRFTISRDNAKNTVYLQMNSLKPEDTAVYYCRERDYWGQGTQVTVSS
  polyreactivity (PSR sort gate): low polyreactivity

## QVQLLESGGGLVQAGGSLRLSCAASGSIFRGYAMGWYRQAPGKERELVAGIRGSDGSTYYADSVKGRFTISRDNAKNTVYLQMNSLKPEDTAVYYCAADRRYLDRDKHRYGYWGQGTQVTVSS
  polyreactivity (PSR sort gate): low polyreactivity

## QVQLVESGGGLVQAGGSRRVSCAASGITFPNYAMGWYRQAPGKERELVAAITGSGGSTYYADSVKGRFTISRDNAKNTVYVQMNSLKPEDTAVYYCNAVYYRYIRGFYYWGPGTQVTVSS
  polyreactivity (PSR sort gate): high polyreactivity

## QVQLVETGGGLVQAGGSLRLSCAASGRTFHYNVMGWYRQAPGKERELVAAITNTGGSTYYADSVKGRFTISRDNAKNTVYLQMNSLKPEDTAVYYCAAVETLPFDWYYWRYDYWGQGTQVTVSS
  polyreactivity (PSR sort gate): low polyreactivity

## QVQLVESGGGLVQAGGSLRLSCAASGSTFWSYTMGWYRQAPGKERELVAAISRSGGSTYYADSVKGRFTISRDNAKNTVYLQMNSLKPEDTAVYYCAADDRYGSRYYYWGQGTQVTVSS
  polyreactivity (PSR sort gate): high polyreactivity

## QVQLVESGGGLVQAGGSLRLSCAASGSIFYRYAMGWYRQAPGKERELVAGISWTGGTYYADSVKGRFTISRDNAKNTVYLQMNSLKPEDTAVYYCAATIWIAYRGWYSDYNYWGQGTQVTVSS
  polyreactivity (PSR sort gate): low polyreactivity

## QVQLVESGGGLVQAGGSLRLSCAASGFTFNYYAMGWYRQAPGKERELVAAIDSGGNTYYADSVKGRFTISRDNAKNTVYLQMNRLKPEDTAVYYCAAYRDYQYDYWGQGTQVTVSS
  polyreactivity (PSR sort gate): low polyreactivity

## QVQLVESGGGLVQAGGSLRLSCAASGRTFVYNAMGWYRQAPGKERELVAAISSGGGTNYADSVKGRFTISRDNAKNTVYLQMNSLKPEDTAVYYCAAGFDGSRHPGFDSWVQGTQVTVSS
  polyreactivity (PSR sort gate): low polyreactivity

## QVQLVESGGRLVQAGASLRLSCAASGRILYWNTMGWYRQAPGKERELVASITQNVGSTYYADSVKGRFTISRDNAKNTVYLQMISMIPEDTAVYYCAAKRLSWHRYGYWGQGTQVTVSS
  polyreactivity (PSR sort gate): low polyreactivity

## QVQLLESCGGLVQAGGSLRLSCAASGIIFARYAMGWYRPAPGKERELVASITTSGGRTYYADSVKGRFTISRDNAKNTVYLQMNSVKPEDTAVYYCAAYYKRDQMYYWGQGTQVTVSS
  polyreactivity (PSR sort gate): high polyreactivity

## QVQLVESGGGLVQAGGSLRLSCAASGFIFSSNAMGWYRQAPGKERELVARITWSDGSTYYADSVKGRFTISRDNAKNTVYLQMNSLKPEDTAVYYCAKGRDATHYEYYLYSMDYWGQGTQVTVSS
  polyreactivity (PSR sort gate): low polyreactivity

## QVQLVESGGGLVQAGGSLRLSCAASGRILGWNAMGWYSPAPGKVRELVAGISSSGGSTYYADSVKGRFTISRHNAKNTVNIQMNSLKPEDTAVYYCAAVVWLSSANRRYYYWGQGTQVTVSS
  polyreactivity (PSR sort gate): high polyreactivity

## QVQLVESGGGLVQAGGSLRLSFAASGLIFDSNAMGWYRQAPGKERELVASTYYADSVKGRFTISRDNAKNTVYLQMNSLKPEDTAVYYCATTSVYKSVTYDYWGQGTQVTVSS
  polyreactivity (PSR sort gate): low polyreactivity

## QVQLVESGGGLVQAGGILRLSCAASGRTFGLYAMGRYRQAPGKERELVAAITRSDGGTNYADSVKGRFTISRDNAKNTVYLQMNSLKAEDTAVYYCAVDLGYVSHVSWYAYEYWGQGTQVTVSS
  polyreactivity (PSR sort gate): low polyreactivity

## QVQLVESGGGLVQAGGSLRLSCAASGSIFLFNTMGWYRQAPGKERELVAVISRGGITYYADSVKGRFTISRDNAKNTVYLQMNSLKPEDTAVYYCAADGGYWSQYDYWGQGTQVTVSS
  polyreactivity (PSR sort gate): low polyreactivity

## QVQLVESGGRLVQAGGSLRLSCAASGSIFSGYTMGWYRQAPGKERELVAAISSDGSTTYADSVKGRFTISRDNAKNTVYLQLNSLKPEDSAVYYSAAYPYWDGSYGGYDYWGQGTQVTVSS
  polyreactivity (PSR sort gate): low polyreactivity

## QVQLVESGGGIVQAGGSLRLSCAASGNILFSYAMGWYRQAPGKERELVAAISRSGGSTYYADSVKGRFTISRDNAKNTVYLQMNSLKPEDTAVYYCNAGVYYSYSVTEDYWGQGTQVTVSS
  polyreactivity (PSR sort gate): high polyreactivity

## QVQLVESGGGLVQAGGSLRLSCAASGFISGKYAMGWYRQAPGKERELVASIRSGGSTNYADSVKGRFTISRDNAKNTVYLQMNSLKPEDTAVYYCAKLRGSRGVIYDYWGQGTQVTVSS
  polyreactivity (PSR sort gate): high polyreactivity

## QGQLVESGGGLVQAGGSLRLSCAASGLTFGSYTMGWYRQAPGKERELVAAITSDGSTNYADSVKGRFTISRDNAKNTVYLQMNSLKPEDTAVYYCAATRVSYRQFKAIGYHYWGQGTQVTVSS
  polyreactivity (PSR sort gate): high polyreactivity
